From patent publication US20230358742A1 (MIT, published 2023) come the findings set out here.

The labels stand for the following.
T1: His-LSP (LMOf2365_0639, Listeria monocytogenes surface protein, with N-terminal 6x-histidine tag) (Listeria monocytogenes)
T1 construct: also called Listeria surface protein
T1 chain: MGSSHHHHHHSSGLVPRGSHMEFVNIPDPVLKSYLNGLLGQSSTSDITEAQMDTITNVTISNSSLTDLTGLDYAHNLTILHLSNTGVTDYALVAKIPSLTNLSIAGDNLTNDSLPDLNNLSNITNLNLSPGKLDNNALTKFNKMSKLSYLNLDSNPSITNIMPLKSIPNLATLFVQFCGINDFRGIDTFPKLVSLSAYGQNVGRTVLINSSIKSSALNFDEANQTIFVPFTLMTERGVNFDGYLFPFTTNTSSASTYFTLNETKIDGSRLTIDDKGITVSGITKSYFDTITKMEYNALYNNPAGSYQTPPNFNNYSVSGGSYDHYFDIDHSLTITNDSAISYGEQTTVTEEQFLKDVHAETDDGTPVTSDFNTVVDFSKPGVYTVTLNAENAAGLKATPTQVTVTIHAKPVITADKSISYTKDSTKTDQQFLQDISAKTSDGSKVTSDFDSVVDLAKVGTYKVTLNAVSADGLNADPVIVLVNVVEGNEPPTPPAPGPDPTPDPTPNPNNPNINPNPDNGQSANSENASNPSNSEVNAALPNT

B1: rcSso7d.LSP.3 (yeast-surface displayed) (designed binder)
chain: MATVKFTYQGEEKQVDISKIKIAKRYGQIIDFSYDEGGGARGWGIVSEKDAPKELLQMLEKQ
notes: also called clone 3; Clone 3
B2: rcSso7d.LSP.7 (designed binder)
chain: MATVKFTYQGEEKQVDISKIKIAVYRYGQYIYFSYDEGGGASGIGKVSEKDAPKELLQMLEKQ
notes: also called clone 7; Clone 7
B3: rcSso7d.LSP.5 (designed binder)
chain: MATVKFTYQGEEKQVDISKIKWVRRAGQWIDFAYDEGGGAKGYGIVSEKDAPKELLQCWKS
notes: also called clone 5; Clone 5

In one assay the target is T1, His-LSP (LMOf2365_0639, Listeria …). Kind of assay: FACS histograms, clonal yeast-surface display, 20 nM of LSP (FIG. 3B).
For the molecule MATVKFTYQGEEKQVDISKIKDVGRYGQRICFWL (designed binder, also called clone 4; Clone 4) [rcSso7d.LSP.4], the binding result is listed as “binds”.

On to MATVKFTYQGEEKQVDISKIKDVGRHGQKICFLL (designed binder, also called clone 2; Clone 2) [rcSso7d.LSP.2], for which the binding result was “binds”.

Take B1: the binding result is “binds”.

Another assay shares this target. Nature of the assay: flow cytometry, clonal yeast-surface display, 20 nM His-LSP. In general terms: A flow cytometer gives signals particle by particle.
MATVKFTYQGEEKQVDISKIKDVGRHGQHICFWL (designed binder, also called clone 6; Clone 6) [rcSso7d.LSP.6]: the binding result is recorded as “binds”.

MATVKFTYQGEEKQVDISKIKDVGRSGQNICFYL (designed binder, also called clone 1; Clone 1) [rcSso7d.LSP.1]: the binding result is given as “binds”.

Turning to B2, the binding result is “binds”.

Consider B3, for which the binding result is “binds”.
